“Also recorded” adds a separate entry of the source.

One test deals with mature TGF-β1. The test can be described thus: CAGA12-lux luciferase reporter in HEK293T cells treated with recombinant TGF-β1. To be noted: 5 ng/ml recombinant TGF-β1, expression vector 500 ng, FIG. 2B. The class given is cell-based. Here is the method: To verify how emilin or the EMI domain can contrast TGF-β1 activity independently from receptor binding, HEK293T cells were transfected with a construct coding luciferase placed under control of a TGF-β activated promoter: CAGA12-lux (Jonk et al., 1998) alone or in combination with a emilin1 expression vector (500 ng) as shown in FIG. 2B. After transfection, cells were treated (black bar) or not treated (white bar) with 5 ng/ml recombinant TGF-1 (lanes 1 and 2). Column bars from 3 to 6 report luciferase expression values in experiments with cells co-transfected with the expression vector for emilin1 (or EMI-domain or emilin1ΔEMI) alone (white bars) or in combination with the vector encoding pro TGF-β1 (black bars). Values show the mean±st. dev.
A general note: A reporter such as luciferase makes a cellular process visible.

The target of the next test is T1, pro TGF-β (Homo sapiens, UniProt P01137).
T1 construct: expressed in transfected cells; host or cells: HEK293T
T1 sequence (P01137 30-390): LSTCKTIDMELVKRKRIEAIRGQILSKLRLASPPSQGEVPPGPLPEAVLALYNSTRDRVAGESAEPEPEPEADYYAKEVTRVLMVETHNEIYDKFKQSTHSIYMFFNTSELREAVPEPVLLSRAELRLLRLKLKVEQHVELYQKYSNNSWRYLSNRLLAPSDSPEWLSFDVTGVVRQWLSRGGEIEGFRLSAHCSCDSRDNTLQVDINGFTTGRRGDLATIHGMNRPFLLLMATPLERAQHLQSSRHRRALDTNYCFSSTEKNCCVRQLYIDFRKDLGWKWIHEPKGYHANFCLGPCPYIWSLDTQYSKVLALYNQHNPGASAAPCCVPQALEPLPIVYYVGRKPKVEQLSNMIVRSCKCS
As to the kind of experiment: Co-immunoprecipitation / Western blot of EMI domain or emilin1 with pro TGF-β in HEK293T cells. Type of test: binding. To be noted: HEK293T cell extracts or culture medium; anti-Flag / anti-LAP IP; FIG. 4A-4C. The text has this: • The construct for emilin 1 expression was engineered in pCS2 vector (Rupp R. A. et al., 1994, Genes Dev 8, 1311-1323) (for a physical map of the vector, see the site faculty.washington.edu/rtmoon/pcs2+.html) as described (Zanetti M. et al., 2004, Mol Cell Biol 24, 638-650); the vector used for proTGF-β expression in MEF and HEK293T cells is pCDNA3.1 (Invitrogen). Vectors containing the coding sequence for human pro TGF-β are described in Young and Murphy-Ullrich, 2004 (Young and Murphy-Ullrich, 2004, J Biol Chem 279, 38032-38039). […]

B1: EMI domain: cysteine-rich domain of emilin-1, residues 55-131, SEQ ID NO 2; in some experiments Flag-tagged and GPI-anchored (protein)
chain: RHRNWCAYVVTRTVSCVLEDGVETYVKYQPCAWGQPQCPQSIMYRRFLRPRYRVAYKTVTDMEWRCCQGYGGDDCAE
modifications: sometimes Flag tag and GPI anchor; homo sapiens
notes: in some experiments Flag-tagged and GPI-anchored
As for B1, the “Effect on luciferase expression induced by mature TGF-β” value in the test on mature TGF-β1 was “does not antagonize mature TGF-β”. Also, the “Interaction with pro TGF-β (co-immunoprecipitation)” value in the test with pro TGF-β was “interacts specifically; also recorded: interacts only with the intact pro TGF-β molecule”.

Values taken from US20090036382A1, “TGF-Beta Modulators and Use Thereof” (Universita' Degli Studi Di Padova, priority 2006, published 2009).
